Source: paper PMC9348755 (Science (New York, N.y.), 2022)

B1: C77G12 mAb (antibody, V domains shown)
VH: EVQLVESGGGVVQPGRSLRISCAVSGFTFGSYAMHWVRQAPGKGLEWVGVMSSDGHNEYYADSVKGRFTISRDNSRNKLYLEMNNLRVDDTAVFYCARGSDYVDDSPPLHYWGQGTLVTVSS
VL: DIQLTQSPSSLSASIGDRVTITCRASQDIANKLAWFQQAPGKAPKSLIYAASRLQSGVPSQFSGSGSGTDFTLTIESLQAGDFATYFCQQYDSFPFTFGPGTKVDVK
notes: also called Group 3 mAb; fusion peptide-specific mAb
B2: VN01H1 mAb (antibody, V domains shown)
VH: EVQLVESGGGLVLPGGSLRLSCSASGFTFSDFSMHWVRQSPGKGLEYVSAITSSGSSTYYPDSVKGRFTISRDNSKNTLYLQMGSLRVEDTAVYWCVKNSDVFRFPHLYFDVWGRGTLVTVSS
VL: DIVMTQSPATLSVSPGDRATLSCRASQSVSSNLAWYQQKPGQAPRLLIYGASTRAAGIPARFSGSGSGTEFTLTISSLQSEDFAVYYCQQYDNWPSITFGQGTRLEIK
notes: as for B1
B3: C13B8 mAb (antibody, V domains shown)
VH: QVQLQESGPGLVQPSQTLTLTCTVSGDSISNEDYHWTWIRQHPGKGLEWMGYLQYSGNTNYNPSLKSRMTISVDTSKNQFSLRLNSVTAADTAVYFCATSIVLTGMSNKIQPFDYWGQGTLVTVSS
VL: SYELTQPPSVSVSPGQMARITCSGEALPKKYAYWYQQKGGQFPVLVIYKDTERPSGIPERFSGSSSGTIVTLTISGVQPEDEADYYCLSADTSGTWVFGGGTKLTVL
notes: as for B1
B4: C13C9 mAb (antibody, V domains shown)
VH: EVQLVQSGPEVKKPGTSARVSCKASGFTSKNTALQWVRQARGQPLEWMGWIDISNYITNYAQKFRGRLTITWDLSASMAYMELSSLRSEDTAVYYCAAVGKDDDVLTGGNKYFDHWGQGTLVTVSS
VL: SYELTQPPSVSVSPGQTARITCSGDALPKKYAYWYQQKSGQAPVLVIHEDDKRPSGIPGRFSASSSGTTATLTISGAQVEDEADYYCYSTDTNDNHAFGSGTKLTVL
notes: as for B1
B5: VP12E7 mAb (antibody, V domains shown)
VH: QVQLVQSGGGVVQPGESLRLSCSGSGFTFNNYIMHWVRQAPGQGLDYVSGIGSDGRNTNYGDSVKGRFTISRDNSKDTLYLQMTSLRAEDTAFYYCVKGLDVLRFLDLSTPSGERLDAFDIWGQGTMVTVSS
VL: DIVMTQSPSFLSASVGDRVTITCRASQGISNYLAWYQQKPGKAPHLLIYAASTLQSGVPSRFSGSGSGTEFTLTISSLQPEDFATYYCQQLNSYPLFTFGPGTKVDIE
notes: as for B1

Target: prefusion PentaPro (F817) SARS-CoV-2 S2 (SARS-CoV-2 (Wuhan-Hu-1 assumed), UniProt P0DTC2, stabilised)
Assay: ELISA
Details: both partners purified

Row | Binder | binding result
1 | B1 | binds
2 | B2 | binds
3 | B3 | binds
4 | B4 | binds
5 | B5 | binds
